From patent US10736933B2, “Peptide-induced NK cell activation” (priority 2015, dated 2020) come the findings set out here.

One test concerns the target T1, KIR2DS2 (Homo sapiens, UniProt P43631).
T1 construct: made in house
Briefly: KIR2DS2 tetramer (KIR2DS2-PE) staining of peptide-loaded L721.174 cells. Type of test: binding. As to conditions: L721.174 cells incubated overnight at 26° C. with peptide, flow cytometry. The method, then:
A. The KIR2DS2 protein was expressed with a biotinylation C-terminal tag. Following biotinylation with the BirA enzyme, the KIR2DS2 protein was incubated with streptavidin-phycoerythrin to form fluorescent KIR2DS2-tetramers (KIR2DS2-PE). L721.174 cells were then incubated with indicated peptides. Cells were then stained with KIR2DS2-PE and analysed by flow cytometry. Shown are histogram plots. The bold numbers represent the mean fluorescent staining intensity of the KIR2DS2-PE staining of the cells in the presence of peptide and the non-bold numbers the staining in the absence of peptide. B. Represents the mean and standard error fluorescent intensities of the experiment in “A” following replicate experiments.
A. L721.174 cells were incubated with indicated peptides. Cells were then stained with KIR2DS2-PE (see FIG. 4) and analysed by flow cytometry. Shown are histogram plots. The bold numbers represent the mean fluorescent staining intensity of the KIR2DS2-PE staining of the cells in the presence of peptide and the non-bold numbers the staining in the absence of peptide. B. Represents the mean and standard error fluorescent intensities of the experiment in “A” following replicate experiments.
FIG. 13—KIR2DS2 tetramer staining on 174 cells with and without peptides. Peptides tested include IVDLMCHATF (SEQ ID NO: 1); VIDAMCHATL (SEQ ID NO: 2); AANVMAASL (SEQ ID NO: 3); and FLSDVPVATL (SEQ ID NO: 4). A negative control peptide VAPWNSFAL (SEQ ID NO: 12) and positive control peptide LNPSVAATL (SEQ ID NO: 5) were included. The mean fluorescence intensity of the KIR2DS2 tetramer staining is shown in the right hand corner of the graph.
With reference to FIG. 4A, the KIR2DS2 protein was expressed as a recombinant protein with a biotinylation C-terminal tag. Following biotinylation with the BirA enzyme, the KIR2DS2 protein was incubated with streptavidin-phycoerythrin to form fluorescent KIR2DS2-tetramers (KIR2DS2-PE). 3×10^5 L721.174 cells were then incubated overnight at 26° C. with indicated peptides at a concentration of […]. Cells were then stained with KIR2DS2-PE and analysed by flow cytometry. Shown are histogram plots. The bold numbers represent the mean fluorescent staining intensity of the KIR2DS2-PE staining of the cells in the presence of peptide and the non-bold numbers the staining in the absence of peptide. With reference to FIG. 4B, panel B represents the mean and standard error fluorescent intensities of the experiment in “A” following replicate experiments.
With reference to FIG. 5A, 3×10^5 L721.174 cells were incubated overnight at 26° C. with indicated peptides at a concentration of 200 μM. Cells were then stained with KIR2DS2-PE (see FIG. 4) and analysed by flow cytometry. Shown are histogram plots. The bold numbers represent the mean fluorescent staining intensity of the KIR2DS2-PE staining of the cells in the presence of peptide and the non-bold numbers the staining in the absence of peptide. With reference to FIG. 5B, panel B represents the mean and standard error fluorescent intensities of the experiment in “A” following replicate experiments.
With reference to FIG. 13, the KIR2DS2 protein was expressed as a recombinant protein with a biotinylation C-terminal tag. Following biotinylation with the BirA enzyme, the KIR2DS2 protein was incubated with streptavidin-phycoerythrin to form fluorescent KIR2DS2-tetramers (KIR2DS2-PE). […] Cells were then stained with KIR2DS2-PE and analysed by flow cytometry. […]

The target of another test is HLA-Cw*0102 (Homo sapiens, UniProt P10321, A176E/A330V/A35S/A97T/C350S/D114A/D33F/L171W/L180R/L218V/M285V/M309V/M331V/P208H/Q277E/Q291P/R121W/R243W/R30K/S123C/S140Y/S297R/T329A/T363A/V272M/V319A). Briefly: Peptide binding to HLA-Cw*0102 on L721.174 cells (cell surface MHC class I, flow cytometry). As to conditions: increasing concentrations of peptide, overnight at 26° C. The class given is cell-based. Here is the method:
The HLA-Cw*0102-positive cell line L721.174 was incubated with increasing concentrations of the LNPSVAATL (SEQ ID NO: 5) peptide or a control peptide VAPWNSLSL (SEQ ID NO: 11). Cells were stained for cell surface of MHC class I and analysed by flow cytometry. The mean fluorescence intensity of cell surface MHC Class I was plotted against the peptide concentration.
The HLA-Cw*0102 • positive cell line L721.174 was incubated with increasing concentrations of the peptides IVDLMCHATF (SEQ ID NO: 1); VIDAMCHATL (SEQ ID NO: 2); AANVMAASL (SEQ ID NO: 3); and FLSDVPVATL (SEQ ID NO: 4) or a control peptide […]. Cells were stained for cell surface of MHC class I and analysed by flow cytometry. The mean fluorescence intensity of cell surface MHC Class I was plotted against the peptide concentration.
3×10^5 cells were used per condition. Following washing in PBS the cells were stained for cell surface of MHC class I and analysed by flow cytometry. The mean fluorescence intensity of cell surface MHC Class I was plotted against the peptide concentration.
With reference to FIG. 12, the HLA-Cw*0102-positive cell line L721.174 was incubated with increasing concentrations of the peptides IVDLMCHATF (SEQ ID NO: 1), VIDAMCHATL (SEQ ID NO: 2), AANVMAASL (SEQ ID NO: 3); and FLSDVPVATL (SEQ ID NO: 4) overnight at 26° C. 3×10^5 cells were used per condition. Following washing in PBS the cells were stained for cell surface of MHC class I and analysed by flow cytometry. The mean fluorescence intensity of cell surface MHC Class I was plotted against the peptide concentration.

T1 sequence (P43631 22-245 limits assumed): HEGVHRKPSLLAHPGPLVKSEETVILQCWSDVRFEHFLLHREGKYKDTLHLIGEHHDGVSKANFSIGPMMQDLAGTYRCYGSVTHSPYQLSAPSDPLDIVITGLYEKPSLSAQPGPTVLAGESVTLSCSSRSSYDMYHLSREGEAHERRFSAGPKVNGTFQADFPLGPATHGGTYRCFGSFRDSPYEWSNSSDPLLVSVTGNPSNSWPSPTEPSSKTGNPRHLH

IVDLMCHATF [Dengue virus peptide]: in the test with KIR2DS2, the “KIR2DS2-PE tetramer binding to HLA-C*0102 and peptide” value is “KIR2DS2 BINDS”. In addition, the “binding to HLA-Cw*0102 (mean fluorescence intensity of cell surface MHC Class I)” value in the test with HLA-Cw*0102 was “bind HLA-Cw*0102”.

In the case of “LNPSVAATL [peptide recognized by KIR2DS2-positive NK cells]”, in the test with KIR2DS2, the “KIR2DS2-PE tetramer binding to HLA-C*0102 and peptide” value is reported as “KIR2DS2 binds”. Further, the “binding to HLA-Cw*0102 (mean fluorescence intensity of cell surface MHC Class I)” value with HLA-Cw*0102 is “binds HLA-Cw*0102”.
